According to US12385050B1:

Tests used:
[1] = target: endotoxin (endotoxin concentrate; δ-endotoxin of Bacillus thuringiensis)
[2] = target: endotoxin (endotoxin concentrate; δ-endotoxin of Bacillus thuringiensis); remark: listed apart in the source
[3] = target: endotoxin (endotoxin concentrate; δ-endotoxin of Bacillus thuringiensis); remark: listed apart in the source

Question: What does the source list for “recombinant Citrullus colocynthis dehydrin CcDHN”?
Answer: RPW larval mortality rate, endotoxin solution with the LEA protein, 42 °C, 10 days [1]: 89.7%; RPW adult mortality rate, endotoxin solution with the LEA protein, 42 °C, 10 days [2]: 77.6%; RPW egg hatching rate, endotoxin solution with the LEA protein at 1:40, heat stress 42 °C, day 5 [3]: 15%

Question: What does the source list for “recombinant Phoenix dactylifera LEA2 protein PdLEA2.2”?
Answer: RPW larval mortality rate, endotoxin solution with the LEA protein, 42 °C, 10 days [1]: 84.7%; RPW adult mortality rate, endotoxin solution with the LEA protein, 42 °C, 10 days [2]: 75%; RPW egg hatching rate, endotoxin solution with the LEA protein at 1:40, heat stress 42 °C, day 5 [3]: 11%

Question: “recombinant Phoenix dactylifera LEA2 protein PdLEA2.3” was tested. Which RPW larval mortality rate, endotoxin solution with the LEA protein, 42 °C, 10 days [1] did it give?
Answer: The RPW larval mortality rate, endotoxin solution with the LEA protein, 42 °C, 10 days was 83.3%.

Question: What about the RPW adult mortality rate, endotoxin solution with the LEA protein, 42 °C, 10 days [2] of the same substance?
Answer: Its RPW adult mortality rate, endotoxin solution with the LEA protein, 42 °C, 10 days is 73.6%.

Question: And the RPW egg hatching rate, endotoxin solution with the LEA protein at 1:40, heat stress 42 °C, day 5 [3]?
Answer: The RPW egg hatching rate, endotoxin solution with the LEA protein at 1:40, heat stress 42 °C, day 5 was 15%.

Question: What does the source list for “recombinant Phoenix dactylifera LEA2 protein PdLEA2.4”?
Answer: RPW larval mortality rate, endotoxin solution with the LEA protein, 42 °C, 10 days [1]: 83.6%; RPW adult mortality rate, endotoxin solution with the LEA protein, 42 °C, 10 days [2]: 73.3%; RPW egg hatching rate, endotoxin solution with the LEA protein at 1:40, heat stress 42 °C, day 5 [3]: 11.3%

Question: What does the source list for “recombinant Prosopis cineraria dehydrin PcDHN”?
Answer: RPW larval mortality rate, endotoxin solution with the LEA protein, 42 °C, 10 days [1]: 88%; RPW adult mortality rate, endotoxin solution with the LEA protein, 42 °C, 10 days [2]: 76.3%; RPW egg hatching rate, endotoxin solution with the LEA protein at 1:40, heat stress 42 °C, day 5 [3]: 13.6%

Question: With “recombinant Phoenix dactylifera dehydrin PdDHN” as the substance, how does the RPW larval mortality rate, endotoxin solution with the LEA protein, 42 °C, 10 days [1] read?
Answer: Its RPW larval mortality rate, endotoxin solution with the LEA protein, 42 °C, 10 days is 85.6%.

Question: And the RPW adult mortality rate, endotoxin solution with the LEA protein, 42 °C, 10 days [2]?
Answer: The RPW adult mortality rate, endotoxin solution with the LEA protein, 42 °C, 10 days was 75%.

Question: And the RPW egg hatching rate, endotoxin solution with the LEA protein at 1:40, heat stress 42 °C, day 5 [3]?
Answer: Its RPW egg hatching rate, endotoxin solution with the LEA protein at 1:40, heat stress 42 °C, day 5 is 11.3%.
